Measured values from patent publication US5882887.

Legend:
[1] = biological target: collagen (type III)
[2] = biological target: collagen (type III); remark: listed apart in the source
[3] = biological target: collagen

B1: recombinant Asp-Pallidipin (protein of SEQ ID NO:1) (protein)
chain: DEECELMPPGDNFDLEKYFSIPHVYVTHSRNGPKEQVCREYKTTKNSDGTTTTTLVTSDYKTGGKPYHSELKCTNTPKSGGKGQFSVECEVPNGNGGKKKIHVETSVIATDYKNYALLQSCTKTESGIADDVLLLQTKKEGVDPGVTSVLKSVNWSLDDWFSRSKVNCDNMK
B1 showed an adhesion of metastatic tumor cells to collagen [1] of 100 nmol/L, an attachment of 51Cr-labelled MTLn3 rat mammary tumor cells to collagen-coated wells (cpm) [2] of 1080 cpm and a collagen-induced aggregation of human platelets in platelet-rich plasma (aggregometer, maximum value) [3] of 50 nM.
